Measured values as given in article PMC6555819, “Comprehensive study of nuclear receptor DNA binding provides a revised framework for understanding receptor specificity”.

B1: NRC3_random_hg19_186_o1 (dsDNA)
DNA 1: GCTTTCGTTACTGTAGCCTTGTAGTATAGTTTGAAGGCGATTGACAGCGTAGAATGAAGG
DNA 2: CCTTCATTCTACGCTGTCAATCGCCTTCAAACTATACTACAAGGCTACAGTAACGAAAGC
B2: NRC3_wobSeed99_DR4_T22G_o1 (dsDNA)
DNA 1: GCTCTCGGAGGACACGAAAGGGCAGAGCTCGACATCGCGATTGACAGCGTAGAATGAAGG
DNA 2: CCTTCATTCTACGCTGTCAATCGCGATGTCGAGCTCTGCCCTTTCGTGTCCTCCGAGAGC
B3: NRC3_wobSeed49_DR2_G16A_o1 (dsDNA)
DNA 1: GCCAAACTAGGTCAAAAGGTCAAAGTCCGCTTCCCGGCGATTGACAGCGTAGAATGAAGG
DNA 2: CCTTCATTCTACGCTGTCAATCGCCGGGAAGCGGACTTTGACCTTTTGACCTAGTTTGGC
B4: NRC3_random_hg19_155_o1 (dsDNA)
DNA 1: GCGAGTGCTATGCTTGCTTTCTATCTCATACAGTATGCGATTGACAGCGTAGAATGAAGG
DNA 2: CCTTCATTCTACGCTGTCAATCGCATACTGTATGAGATAGAAAGCAAGCATAGCACTCGC
B5: NRC3_random_hg19_49_o1 (dsDNA)
DNA 1: GCACAGAAGGTAGCAAAGTAATCATGCTAGTGGTCAGCGATTGACAGCGTAGAATGAAGG
DNA 2: CCTTCATTCTACGCTGTCAATCGCTGACCACTAGCATGATTACTTTGCTACCTTCTGTGC
B6: NRC3_wobSeed125_DR5_C8G_o1 (dsDNA)
DNA 1: GCCCTTAGGGGTCACTGACAGGTTATAGCATTTGGAGCGATTGACAGCGTAGAATGAAGG
DNA 2: CCTTCATTCTACGCTGTCAATCGCTCCAAATGCTATAACCTGTCAGTGACCCCTAAGGGC
B7: NRC3_wobSeed124_DR5_C12T_o1 (dsDNA)
DNA 1: GCCCTACTGGGTCATTCAGAGGTCATTGATCATATGGCGATTGACAGCGTAGAATGAAGG
DNA 2: CCTTCATTCTACGCTGTCAATCGCCATATGATCAATGACCTCTGAATGACCCAGTAGGGC
B8: NRC3_wobSeed5_DR0_C8G_o1 (dsDNA)
DNA 1: GCCCTTAGGGGTCAAGGTTATAGCACGGGTGGTACGGCGATTGACAGCGTAGAATGAAGG
DNA 2: CCTTCATTCTACGCTGTCAATCGCCGTACCACCCGTGCTATAACCTTGACCCCTAAGGGC
B9: NRC3_wobSeed58_DR2_G14A_o1 (dsDNA)
DNA 1: GCATCGAAAGGTCATGAGGTGAGTATACAGAAAGGCGCGATTGACAGCGTAGAATGAAGG
DNA 2: CCTTCATTCTACGCTGTCAATCGCGCCTTTCTGTATACTCACCTCATGACCTTTCGATGC
B10: NRC3_random_hg19_212_o1 (dsDNA)
DNA 1: GCAAGCATCCAGGACAAGGAAAGAGTAATCAATGGCGCGATTGACAGCGTAGAATGAAGG
DNA 2: CCTTCATTCTACGCTGTCAATCGCGCCATTGATTACTCTTTCCTTGTCCTGGATGCTTGC
B11: NRC3_random_hg19_64_o1 (dsDNA)
DNA 1: GCAATCCAATTGGAGGTGCACTCGTCTAAGTGGTCCGCGATTGACAGCGTAGAATGAAGG
DNA 2: CCTTCATTCTACGCTGTCAATCGCGGACCACTTAGACGAGTGCACCTCCAATTGGATTGC
B12: NRC3_random_hg19_112_o1 (dsDNA)
DNA 1: GCATCTGGCATATGTTCACTCCATGTACCACAGATAGCGATTGACAGCGTAGAATGAAGG
DNA 2: CCTTCATTCTACGCTGTCAATCGCTATCTGTGGTACATGGAGTGAACATATGCCAGATGC
B13: NRC3_random_hg19_58_o1 (dsDNA)
DNA 1: GCAAGACTCCTGGCTCTGATTCTAAACTAAACATAGGCGATTGACAGCGTAGAATGAAGG
DNA 2: CCTTCATTCTACGCTGTCAATCGCCTATGTTTAGTTTAGAATCAGAGCCAGGAGTCTTGC
B14: NRC3_wobSeed130_DR5_G22A_o1 (dsDNA)
DNA 1: GCCTCGAAAGGTCGTGCTCAGATGAGTATACCAAACGCGATTGACAGCGTAGAATGAAGG
DNA 2: CCTTCATTCTACGCTGTCAATCGCGTTTGGTATACTCATCTGAGCACGACCTTTCGAGGC
B15: NRC3_wobSeed85_DR3_C7A_o1 (dsDNA)
DNA 1: GCCGTCAAAGGTCAGAGAGGTCAGTGAATGCCGAGTGCGATTGACAGCGTAGAATGAAGG
DNA 2: CCTTCATTCTACGCTGTCAATCGCACTCGGCATTCACTGACCTCTCTGACCTTTGACGGC
B16: NRC3_random_hg19_341_o1 (dsDNA)
DNA 1: GCCCCAGATGACGGGTTGATATGGGCAGCAAACCGCGCGATTGACAGCGTAGAATGAAGG
DNA 2: CCTTCATTCTACGCTGTCAATCGCGCGGTTTGCTGCCCATATCAACCCGTCATCTGGGGC
B17: NRC3_wobSeed72_DR2_C25G_o1 (dsDNA)
DNA 1: GCTCGAGTAGGTTACGGGGGCATTGAGGGATGAAGAGCGATTGACAGCGTAGAATGAAGG
DNA 2: CCTTCATTCTACGCTGTCAATCGCTCTTCATCCCTCAATGCCCCCGTAACCTACTCGAGC

Columns and labels:
PXR:RXRa = PXR:RXRa (Homo sapiens, UniProt O75469;P19793 full;full); assay: no ligand; PBM; 270 nM : 90 nM RXRa; PBS pH 7.4, 2% milk, 0.02% Triton X-100, 1 mM DTT, BSA, 0.4 mg/ml salmon testes DNA; settings: tags: His kept;His cleaved; copies: 1;1; label: surface-attached array probe
Chain of PXR:RXRa (O75469 whole entry, chain 1 of 2): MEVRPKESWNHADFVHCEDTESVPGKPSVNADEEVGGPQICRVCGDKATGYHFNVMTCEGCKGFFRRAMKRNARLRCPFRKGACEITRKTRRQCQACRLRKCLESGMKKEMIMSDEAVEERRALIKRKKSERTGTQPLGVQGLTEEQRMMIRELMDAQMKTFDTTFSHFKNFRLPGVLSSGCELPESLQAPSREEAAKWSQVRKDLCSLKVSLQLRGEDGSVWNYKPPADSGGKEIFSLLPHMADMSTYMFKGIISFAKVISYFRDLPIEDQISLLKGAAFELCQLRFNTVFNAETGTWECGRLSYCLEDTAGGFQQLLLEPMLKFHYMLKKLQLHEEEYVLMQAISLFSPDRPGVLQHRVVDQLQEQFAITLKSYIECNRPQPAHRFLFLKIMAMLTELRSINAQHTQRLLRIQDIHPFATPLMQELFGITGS
Chain of PXR:RXRa (P19793 whole entry, chain 2 of 2): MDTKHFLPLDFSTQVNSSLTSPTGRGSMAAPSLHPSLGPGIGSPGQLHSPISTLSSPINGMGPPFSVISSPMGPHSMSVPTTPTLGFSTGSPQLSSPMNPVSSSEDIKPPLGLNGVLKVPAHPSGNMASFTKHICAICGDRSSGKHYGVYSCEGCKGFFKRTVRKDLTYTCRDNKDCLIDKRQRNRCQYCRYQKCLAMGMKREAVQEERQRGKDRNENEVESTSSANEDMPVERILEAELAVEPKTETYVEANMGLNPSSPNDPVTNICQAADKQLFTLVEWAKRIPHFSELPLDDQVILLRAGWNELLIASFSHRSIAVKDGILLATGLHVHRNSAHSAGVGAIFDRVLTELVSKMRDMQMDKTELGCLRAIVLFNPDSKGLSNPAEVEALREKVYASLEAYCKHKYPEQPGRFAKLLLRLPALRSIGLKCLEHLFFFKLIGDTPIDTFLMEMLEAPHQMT
Method in brief: (§1)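 The probes on custom Agilent 4×180K protein-binding microarrays were double-stranded, with 34-nt variable regions bearing direct-repeat seeds, single-nucleotide variants, half-site ablations and random human genomic background sequences. Incubation lasted 1 h with ligand-free nuclear receptor dimers in PBS pH 7.4, 2% milk, 0.02% Triton X-100, 1 mM DTT, 0.2 mg/mL BSA and 0.4 mg/ml salmon testes DNA. Antibodies against each partner (one per run) detected bound dimers, and fluorescence scans were regression-normalized. Binding z-scores take the random background probes as reference.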

RARa:RXRa = RARa:RXRa (Homo sapiens, UniProt P10276;P19793 full;full); assay: as above; settings: tags: His kept;His cleaved; copies: 1;1; label: surface-attached array probe
Method in brief: as §1

RXRa = RXRa (Homo sapiens, UniProt P19793); assay: no ligand; PBM; 180 nM; PBS pH 7.4, 2% milk, 0.02% Triton X-100, 1 mM DTT, BSA, 0.4 mg/ml salmon testes DNA; settings: tags: His cleaved; chain copies: 2; label: surface-attached array probe
LXRa:RXRa = LXRa:RXRa (Homo sapiens, UniProt Q13133;P19793 full;full); assay: no ligand; PBM; 270 nM : 90 nM RXRa; PBS pH 7.4, 2% milk, 0.02% Triton X-100, 1 mM DTT, BSA, 0.4 mg/ml salmon testes DNA; settings: tags: His kept;His cleaved; copies: 1;1; label: surface-attached array probe
Chain of LXRa:RXRa (Q13133 whole entry, chain 1 of 2): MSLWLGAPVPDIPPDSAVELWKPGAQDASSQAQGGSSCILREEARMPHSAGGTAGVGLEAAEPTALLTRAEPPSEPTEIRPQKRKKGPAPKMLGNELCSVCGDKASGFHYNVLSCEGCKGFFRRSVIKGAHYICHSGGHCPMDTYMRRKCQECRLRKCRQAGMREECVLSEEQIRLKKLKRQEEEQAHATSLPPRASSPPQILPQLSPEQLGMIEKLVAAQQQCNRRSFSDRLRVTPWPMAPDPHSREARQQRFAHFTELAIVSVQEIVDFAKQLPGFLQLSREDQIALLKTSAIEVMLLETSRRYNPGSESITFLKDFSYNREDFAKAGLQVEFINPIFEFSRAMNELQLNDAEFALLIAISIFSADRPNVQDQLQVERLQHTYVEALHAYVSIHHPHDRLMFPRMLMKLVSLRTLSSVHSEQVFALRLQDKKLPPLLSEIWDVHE
Chain of LXRa:RXRa (P19793 whole entry, chain 2 of 2): as the sequence (P19793 whole entry, chain 2 of 2) above
Method in brief: as §1

RARg:RXRa = RARg:RXRa (Homo sapiens, UniProt P13631;P19793 full;full); assay: as above; settings: tags: His kept;His cleaved; copies: 1;1; label: surface-attached array probe
Chain of RARg:RXRa (P13631 whole entry, chain 1 of 2): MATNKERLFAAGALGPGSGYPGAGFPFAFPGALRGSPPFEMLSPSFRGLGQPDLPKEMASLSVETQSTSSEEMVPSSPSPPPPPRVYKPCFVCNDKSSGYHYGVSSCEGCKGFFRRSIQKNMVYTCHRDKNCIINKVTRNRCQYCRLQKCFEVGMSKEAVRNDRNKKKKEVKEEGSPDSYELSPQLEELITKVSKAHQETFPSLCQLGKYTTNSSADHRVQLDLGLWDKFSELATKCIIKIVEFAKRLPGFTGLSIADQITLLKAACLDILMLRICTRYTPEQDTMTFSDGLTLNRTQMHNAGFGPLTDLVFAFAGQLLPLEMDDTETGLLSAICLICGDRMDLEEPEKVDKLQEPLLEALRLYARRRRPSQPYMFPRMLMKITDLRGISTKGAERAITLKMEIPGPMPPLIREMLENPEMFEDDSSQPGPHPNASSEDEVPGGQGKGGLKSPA
Chain of RARg:RXRa (P19793 whole entry, chain 2 of 2): as the sequence (P19793 whole entry, chain 2 of 2) above
Method in brief: as §1

PPARa:RXRa = PPARa:RXRa (Homo sapiens, UniProt Q07869;P19793 full;full); assay: as above; settings: tags: GST kept;His cleaved; copies: 1;1; label: surface-attached array probe
Chain of PPARa:RXRa (Q07869 whole entry, chain 1 of 2): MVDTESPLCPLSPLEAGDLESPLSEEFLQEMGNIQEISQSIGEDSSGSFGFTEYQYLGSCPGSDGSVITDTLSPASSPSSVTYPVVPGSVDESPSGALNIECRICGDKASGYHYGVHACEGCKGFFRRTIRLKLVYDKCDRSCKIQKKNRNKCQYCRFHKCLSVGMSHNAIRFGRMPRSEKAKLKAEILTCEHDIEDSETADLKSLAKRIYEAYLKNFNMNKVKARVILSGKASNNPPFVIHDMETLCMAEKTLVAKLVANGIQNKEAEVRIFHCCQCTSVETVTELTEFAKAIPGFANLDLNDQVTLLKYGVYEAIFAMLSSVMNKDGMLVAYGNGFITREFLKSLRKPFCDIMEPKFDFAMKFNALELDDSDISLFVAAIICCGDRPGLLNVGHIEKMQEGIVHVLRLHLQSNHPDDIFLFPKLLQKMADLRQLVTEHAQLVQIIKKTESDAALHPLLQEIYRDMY
Chain of PPARa:RXRa (P19793 whole entry, chain 2 of 2): as the sequence (P19793 whole entry, chain 2 of 2) above
Method in brief: as §1

LXRb:RXRa = LXRb:RXRa (Homo sapiens, UniProt P55055;P19793 full;full); assay: as above; settings: tags: His kept;His cleaved; copies: 1;1; label: surface-attached array probe
Method in brief: as §1

RARb:RXRa = RARb:RXRa (Homo sapiens, UniProt P10826;P19793 full;full); assay: as above; settings: tags: His kept;His cleaved; copies: 1;1; label: surface-attached array probe
Chain of RARb:RXRa (P10826 whole entry, chain 1 of 2): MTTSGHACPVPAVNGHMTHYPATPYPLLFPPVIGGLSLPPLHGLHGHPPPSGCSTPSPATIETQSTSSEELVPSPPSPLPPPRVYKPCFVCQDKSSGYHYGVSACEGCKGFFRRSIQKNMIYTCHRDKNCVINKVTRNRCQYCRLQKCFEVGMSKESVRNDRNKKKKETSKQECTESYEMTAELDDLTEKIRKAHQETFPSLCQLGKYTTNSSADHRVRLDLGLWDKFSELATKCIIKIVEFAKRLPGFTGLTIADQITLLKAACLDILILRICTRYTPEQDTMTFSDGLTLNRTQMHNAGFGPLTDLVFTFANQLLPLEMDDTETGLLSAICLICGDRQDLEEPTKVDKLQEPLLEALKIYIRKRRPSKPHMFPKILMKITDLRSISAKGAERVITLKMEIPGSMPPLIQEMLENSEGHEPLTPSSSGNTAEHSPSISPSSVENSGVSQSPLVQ
Chain of RARb:RXRa (P19793 whole entry, chain 2 of 2): as the sequence (P19793 whole entry, chain 2 of 2) above
Method in brief: as §1

VDR:RXRa = VDR:RXRa (Homo sapiens, UniProt P11473;P19793 full;full); assay: as above; settings: tags: His kept;His cleaved; copies: 1;1; label: surface-attached array probe
Method in brief: as §1

FXR:RXRa = FXR:RXRa (Homo sapiens, UniProt Q96RI1;P19793 full;full); assay: as above; settings: tags: His kept;His cleaved; copies: 1;1; label: surface-attached array probe
Method in brief: as §1

| Binder | binding signal (PXR:RXRa) | binding signal (RARa:RXRa) | binding signal (RXRa) | binding signal (LXRa:RXRa) | binding signal (RARg:RXRa) | binding signal (PPARa:RXRa) | binding signal (LXRb:RXRa) | binding signal (RARb:RXRa) | binding signal (VDR:RXRa) | binding signal (FXR:RXRa) |
| --- | --- | --- | --- | --- | --- | --- | --- | --- | --- | --- |
| B1 | 0.22 PBM z-score against 500 random probes | 0.29 PBM z-score against 500 random probes |  |  |  |  |  |  |  |  |
| B2 | 0.23 PBM z-score against 500 random probes | 0.47 PBM z-score against 500 random probes |  |  |  |  |  |  |  |  |
| B3 |  | 8.77 PBM z-score against 500 random probes | 9.09 PBM z-score against 500 random probes | 7.1 PBM z-score against 500 random probes | 8.94 PBM z-score against 500 random probes | 7.14 PBM z-score against 500 random probes | 6.34 PBM z-score against 500 random probes | 6 PBM z-score against 500 random probes |  |  |
| B4 |  | -1.16 PBM z-score against 500 random probes |  | -0.77 PBM z-score against 500 random probes | -0.56 PBM z-score against 500 random probes | -0.78 PBM z-score against 500 random probes | -0.78 PBM z-score against 500 random probes |  |  |  |
| B5 |  | -0.41 PBM z-score against 500 random probes |  | -0.5 PBM z-score against 500 random probes |  |  |  |  |  |  |
| B6 |  | 7.93 PBM z-score against 500 random probes | 9.59 PBM z-score against 500 random probes |  | 8.18 PBM z-score against 500 random probes | 6.95 PBM z-score against 500 random probes | 6.07 PBM z-score against 500 random probes | 5.48 PBM z-score against 500 random probes | 6.5 PBM z-score against 500 random probes | 8.59 PBM z-score against 500 random probes |
| B7 | 6.43 PBM z-score against 500 random probes | 7.55 PBM z-score against 500 random probes |  |  | 8.13 PBM z-score against 500 random probes |  |  |  |  |  |
| B8 |  | 7.21 PBM z-score against 500 random probes | 9.14 PBM z-score against 500 random probes | 6.63 PBM z-score against 500 random probes | 7.74 PBM z-score against 500 random probes | 6.97 PBM z-score against 500 random probes | 5.92 PBM z-score against 500 random probes | 5.75 PBM z-score against 500 random probes |  | 8.51 PBM z-score against 500 random probes |
| B9 |  | 7.09 PBM z-score against 500 random probes | 8.9 PBM z-score against 500 random probes | 6.98 PBM z-score against 500 random probes | 7.79 PBM z-score against 500 random probes | 6.95 PBM z-score against 500 random probes | 5.92 PBM z-score against 500 random probes | 6.03 PBM z-score against 500 random probes |  | 8.53 PBM z-score against 500 random probes |
| B10 |  | -0.03 PBM z-score against 500 random probes |  | -0.29 PBM z-score against 500 random probes |  |  |  |  | 0.09 PBM z-score against 500 random probes |  |
| B11 | -0.06 PBM z-score against 500 random probes | -0.24 PBM z-score against 500 random probes |  |  |  |  |  |  |  |  |
| B12 |  | -0.07 PBM z-score against 500 random probes |  | -0.28 PBM z-score against 500 random probes |  |  |  |  |  |  |
| B13 | -0.84 PBM z-score against 500 random probes | -0.89 PBM z-score against 500 random probes |  |  |  |  |  |  |  |  |
| B14 |  | 3.27 PBM z-score against 500 random probes |  | 3.83 PBM z-score against 500 random probes |  |  |  |  |  |  |
| B15 |  | 7.18 PBM z-score against 500 random probes | 7.98 PBM z-score against 500 random probes |  | 7.93 PBM z-score against 500 random probes |  | 5.98 PBM z-score against 500 random probes | 5.97 PBM z-score against 500 random probes | 7.92 PBM z-score against 500 random probes | 8.03 PBM z-score against 500 random probes |
| B16 | -0.3 PBM z-score against 500 random probes | -0.22 PBM z-score against 500 random probes |  |  |  |  |  |  |  |  |
| B17 | 3.09 PBM z-score against 500 random probes | 3.03 PBM z-score against 500 random probes |  |  |  |  |  |  |  |  |
